# According to EP1169642B1:
# B1: recombinant dentin matrix protein 1 (rDMP1) (ligand)
# chain: LPVTRYQNNESEDSEEWKGHLAQAPTPPLESSESSEGSKVSSEEQANEDPSDSTQSEEGLGSDDHQYIYRLAGGFSRSTGKGGDDKDDDEDDSGDDTFGDDDSGPGPKDRQEGGNSRLGSDEDSDDTIQASEESAPQGQDSAQDTTSESRELDNEDRVDSKPEGGDSTQESESEEHWVGGGSDGESSHGDGSELDDEGMQSDDPESIRSERGNSRMNSAGMKSKESGENSEQANTQDSGGSQLLEHPSRKIFRKSRISEEDDRSELDDNNTMEEVKSDSTENSNSRDTGLSQPRRDSKGDSQEDSKENLSQEESQNVDGPSSESSQEANLSSQENSSESQEEVVSESRGDNPDPTTSYVEDQEDSDSSEEDSSHTLSHSKSESREEQADSESSESLNFSEESPESPEDENSSSQEGLQSHSSSAESQSEESHSEEDDSDSQDSSRSKEDSNSTESKSSSEEDGQLKNIEIESRKLTVDAYHNKPIGDQDDNDCQDGY
# Target: purified human complement Factor H (human) (UniProt P08603)
# Test: steady state fluorescence titration of purified human Factor H
# Chain of purified human complement Factor H (human) (P08603 19-1231 limits assumed): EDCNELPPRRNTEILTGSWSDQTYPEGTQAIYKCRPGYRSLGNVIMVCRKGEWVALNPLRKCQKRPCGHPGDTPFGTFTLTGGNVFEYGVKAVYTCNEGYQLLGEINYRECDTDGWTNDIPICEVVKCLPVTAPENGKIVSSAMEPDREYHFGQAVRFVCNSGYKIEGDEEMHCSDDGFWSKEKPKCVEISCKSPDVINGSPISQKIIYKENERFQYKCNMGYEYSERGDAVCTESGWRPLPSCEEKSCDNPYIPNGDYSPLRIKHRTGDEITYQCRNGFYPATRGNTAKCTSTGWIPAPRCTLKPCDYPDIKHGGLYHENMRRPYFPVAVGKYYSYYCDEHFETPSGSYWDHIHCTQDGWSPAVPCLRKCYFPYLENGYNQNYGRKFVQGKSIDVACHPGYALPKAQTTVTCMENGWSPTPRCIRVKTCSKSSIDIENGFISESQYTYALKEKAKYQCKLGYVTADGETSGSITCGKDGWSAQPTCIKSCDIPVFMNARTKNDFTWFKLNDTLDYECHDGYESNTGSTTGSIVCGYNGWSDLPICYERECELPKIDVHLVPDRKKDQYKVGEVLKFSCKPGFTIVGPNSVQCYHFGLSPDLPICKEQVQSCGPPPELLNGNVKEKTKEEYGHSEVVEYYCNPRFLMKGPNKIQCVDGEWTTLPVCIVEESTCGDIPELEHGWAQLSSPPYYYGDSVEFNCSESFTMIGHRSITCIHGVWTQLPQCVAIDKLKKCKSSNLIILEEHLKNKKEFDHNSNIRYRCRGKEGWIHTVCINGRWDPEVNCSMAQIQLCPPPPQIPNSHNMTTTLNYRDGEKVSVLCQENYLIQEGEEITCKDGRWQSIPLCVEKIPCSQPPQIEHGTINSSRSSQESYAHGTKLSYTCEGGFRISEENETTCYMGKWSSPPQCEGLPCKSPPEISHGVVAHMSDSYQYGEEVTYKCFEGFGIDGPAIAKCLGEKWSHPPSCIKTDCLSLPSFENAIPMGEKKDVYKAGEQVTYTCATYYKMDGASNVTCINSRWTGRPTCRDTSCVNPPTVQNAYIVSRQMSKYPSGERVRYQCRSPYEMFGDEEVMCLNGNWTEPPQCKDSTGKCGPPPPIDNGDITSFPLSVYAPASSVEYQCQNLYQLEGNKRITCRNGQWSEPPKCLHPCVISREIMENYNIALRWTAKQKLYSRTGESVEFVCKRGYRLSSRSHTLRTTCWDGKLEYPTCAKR
binder,measurement,value
B1,stoichiometry (DMP1:Factor H),1 molar ratio
